According to patent US20070016969:

Target: hirudin in milk of BC1-GB-Hir transgenic mice (UniProt P01050)
Sequence (P01050 whole entry): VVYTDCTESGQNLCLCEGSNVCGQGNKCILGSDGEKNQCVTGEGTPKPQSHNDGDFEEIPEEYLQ

## thrombin (thrombin solution, 50 U/ml)
  anti-coagulation activity (chromogenic thrombin substrate Tos-Gly-Pro-Arg-4-NA, A405): milk collected from lactating transgenic mice of the invention has a high level of anti-coagulation activity in comparison with that from non-transgenic mice (normal mouse milk)
